In US20210270842A1 (DYAX, published 2021):
Positions count from the first letter of the chain named.

B1: 559B-M0035-H09 (Fab, V domains shown)
VH: EVQLLESGGGLVQPGGSLRLSCAASGFTFSWYGMHWVRQAPGKGLEWVSRIGPSGGPTSYADSVKGRFTISRDNSKNTLYLQMNSLRAEDTAVYYCARGYYGTGRYFQHWGQGTLVTVSS
VL: DIQMTQSPDSLSLSPGDRATLSCRASQSVGSDYLAWYQQKPGQAPRLLIYDASNRATGIPARFSGSGSGTDFTLTISSLEPEDFAVYYCQQRSNWPPTFGGGTKVEIK
B2: 559B-M0004-E08 (Fab, V domains shown)
VH: EVQLLESGGGLVQPGGSLRLSCAASGFTFSMYHMNWVRQAPGKGLEWVSSIYSSGGSTRYADSVKGRFTISRDNSKNTLYLQMNSLRAEDTAVYYCARGVRYGMDVWGQGTTVTVSS
VL: DIQMTQSPSSVSASVGDRVTITCRASQGISSWLAWYQQKPGKAPKLLIYAASSLQSGVPSRFSGSGSGTDFTLTISSLQPEDFATYYCQQANSFPITFGQGTRLEIK
B3: 559B-M0035-F05 (Fab, V domains shown)
VH: EVQLLESGGGLVQPGGSLRLSCAASGFTFSHYPMAWVRQAPGKGLEWVSGIVSSGGRTVYADSVKGRFTISRDNSKNTLYLQMNSLRAEDTAVYYCARDPYDFWSEGAFDIWGQGTMVTVSS
VL: QSVLTQPPSASGTPGQRVTISCSGSSSNIGNNFVYWYHQVPGTAPKLLIYKNNQRPSGVPDRFSGSKSAASASLAISGLRSEDEADYYCAAWDNSLSGFYVFGAGTKVTVL
B4: 559B-M0065-B10 (Fab, V domains shown)
VH: EVQLLESGGGLVQPGGSLRLSCAASGFTFSKYFMTWVRQAPGKGLEWVSWISSSGGYTNYADSVKGRFTISRDNSKNTLYLQMNSLRAEDTAVYYCARGAYYYDAFDIWGQGTMVTVSS
VL: DIQMTQSPSSLSASVGDRVTITCRASQSIAIFLNWYQQTPGKPPKLLIYGASTLQSGVPSRFSGSGSGADFTLTISNLQLEDFTTYYCQQSYSTLYTFGQGTKLEIK
B5: 559B-M0039-G07 (Fab, V domains shown)
VH: EVQLLESGGGLVQPGGSLRLSCAASGFTFSRYRMRWVRQAPGKGLEWVSGISPSGGWTYYADSVKGRFTISRDNSKNTLYLQMNSLRAEDTAVYYCTTDNGDYALAHWGQGTLVTVSS
VL: DIQMTQSPSSLSASVGDRVTITCRASQRIINYLNWYQQKPGKAPKLLIYAASSLQSGVPSRFSGSGSGTDFTLTISSLQPEDFATYYCQQSYSAPLTFGGGTRVEIK
B6: 559B-M0003-A08 (Fab, V domains shown)
VH: EVQLLESGGGLVQPGGSLRLSCAASGFTFSAYVMRWVRQAPGKGLEWVSSIGSSGGPTYYADSVKGRFTISRDNSKNTLYLQMNSLRAEDTAVYYCARRGGSGSSHAFDIWGQGTMVTVSS
VL: B5 VL with R28S, I30S, N31S, F83S, A84G, S91Y, Y92N, A94F, R103K
B7: 559B-M0064-H02 (Fab, V domains shown)
VH: EVQLLESGGGLVQPGGSLRLSCAASGFTFSQYIMGWVRQAPGKGLEWVSSIGSSGVTVYADSVKGRFTISRDNSKNTLYLQMNSLRAEDTAVYYCARGGGVTVLHAFDIWGQGTMVTVSS
VL: QSALTQPASVSGSPGQSITISCTGTSSDVGGYNYVSWYQQHPGKVPKLIIYEGNKRPSGVPDRFSGSKAGNTASLTVSGLQAEDEADYYCTAYGGHSRFYVFGTGTKVTVLG
notes: Purified recombinant Fab; …GQPKANP)
B8: 559B-M0069-C09 (Fab, V domains shown)
VH: EVQLLESGGGLVQPGGSLRLSCAASGFTFSMYDMHWVRQAPGKGLEWVSSISSSGGYTQYADSVKGRFTISRDNSKNTLYLQMNSLRAEDTAMYYCARDRGLIAAAGGFDPWGQGTLVTVSS
VL: DIQMTQSPSSLSASVGDRVTITCRASQSIGIYLNWYQQKPGTAPKLLIYAASSLQSGVPSRFTGSGSGTDFTLTISSLQPDDFATYYCQRTYGRPLTFGGGTKVEIK
B9: 559B-M0043-C06 (Fab, V domains shown)
VH: EVQLLESGGGLVQPGGSLRLSCAASGFTFSAYAMRWVRQAPGKGLEWVSYISSSGGETMYADSVKGRFTISRDNSKNTLYLQMNSLRAEDTAVYYCANGYGRIDYWGQGTLVTVSS
VL: QSVLTQPASVSGSPGQSITISCTGTSSDIGGYNYVSWYQQHPGKAPKLMIYEVSNRPSGVSNRFSGSKSGNTASLTISGLQAEDEADYYCSSYTSGSTRVFGTGTRVTVL
B10: 559B-M0067-G11 (Fab, V domains shown)
VH: EVQLLESGGGLVQPGGSLRLSCAASGFTFSPYEMVWVRQAPGKGLEWVSSIVPSGGWTVYADSVKGRFTISRDNSKNTLYLQMNSLRAEDTAVYYCASPSGRGLAFDIWGQGTMVTVSS
VL: DIQMTQSPGTLSLSPGERATLSCRASQSISSSYLAWYQQKPGQAPRLLIYGASSRATGVPDRFSGSGSGTEFTLTISSLQPEDFATYYCLQQKSYPYTFGQGTKVEIK
B11: 559B-M0068-D01 (Fab, V domains shown)
VH: EVQLLESGGGLVQPGGSLRLSCAASGFTFSIYPMSWVRQAPGKGLEWVSGISPSGGKTAYADSVKGRFTISRDNSKNTLYLQMNSLRAEDTAVYYCARGQGRAVRGKLYYYGMDVWGQGTTVTVSS
VL: QSALTQPPSASQTPGQTVTISCSGSSSNIGTNNVNWYQQLPGTAPKLLISSHHRRPSGVPDRFSASKSGTSASLAISGLQSEDEADYYCAAWDDSLNGPVFGGGTKLTVL
B12: 559B-M0054-B11 (Fab, V domains shown)
VH: EVQLLESGGGLVQPGGSLRLSCAASGFTFSYYGMNWVRQAPGKGLEWVSVISPSGGLTVYADSVKGRFTISRDNSKNTLYLQMNSLRAEDTAMYYCATGFAVQHGGGAFDIWGQGTMVTVSS
VL: DIQMTQSPATLSMSPGERATLSCRASQSVTTYLAWYQQKPGQAPRLLIYDASIRATGVPARFSGSGSGTDFTLTISRLEPEDFAVYYCQQRTIWPLTFGGGTKVEIK
B13: 559B-M0070-H10 (Fab, V domains shown)
VH: EVQLLESGGGLVQPGGSLRLSCAASGFTFSTYGMRWVRQAPGKGLEWVSVISPSGGKTNYADSVKGRFTISRDNSKNTLYLQMNSLRAEDTAVYYCARGRPDYYAMDVWGQGTTVTVSS
VL: QSALTQPPSASGAPGQRVTISCSGSSSNIGSNTVNWYQKLPGTAPKLLIYYNDRRPSGVPDRFSGSKSGNTASLTISGLQAEDEADYYCAAWDDSLSGPVFGGGTKLTVL
notes: also called M070-H10

How the values were obtained:
[1] = biological target: T1, intact high molecular weight kininogen (HMWK) (Homo sapiens, UniProt P01042 19-644); assay: ELISA: Fab coated on 96-well plate, LowCross block, biotinylated antigen, streptavidin-HRP; signal over uncoated well
T1 construct: also called intact HMWK; 1-chain HMWK
T1 sequence: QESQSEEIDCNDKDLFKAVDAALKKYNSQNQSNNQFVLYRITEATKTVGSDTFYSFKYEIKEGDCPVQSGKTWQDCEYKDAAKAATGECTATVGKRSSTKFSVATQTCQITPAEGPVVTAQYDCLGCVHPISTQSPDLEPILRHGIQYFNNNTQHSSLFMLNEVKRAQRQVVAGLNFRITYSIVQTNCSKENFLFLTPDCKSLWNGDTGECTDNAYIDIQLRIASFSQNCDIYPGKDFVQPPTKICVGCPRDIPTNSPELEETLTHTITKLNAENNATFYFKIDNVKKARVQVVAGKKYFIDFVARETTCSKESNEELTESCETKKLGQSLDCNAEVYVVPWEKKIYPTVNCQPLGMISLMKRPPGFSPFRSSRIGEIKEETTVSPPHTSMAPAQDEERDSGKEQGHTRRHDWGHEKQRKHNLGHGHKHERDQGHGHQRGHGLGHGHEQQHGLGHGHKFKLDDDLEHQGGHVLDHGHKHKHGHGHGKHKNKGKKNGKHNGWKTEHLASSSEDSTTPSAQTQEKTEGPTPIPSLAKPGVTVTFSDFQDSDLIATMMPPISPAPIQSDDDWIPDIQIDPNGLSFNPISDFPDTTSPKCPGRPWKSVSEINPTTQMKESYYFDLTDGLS
Method: Thirty-six purified Fab clones (see Table 2 below) were assessed for binding to cleaved HWMK, intact HMWK, and LWMK using the immunoassay described in Example 1. Specifically, each of the purified Fab clones was immobilized on 96-well assay plates at a concentration of […]) in a total volume of 100 μL in PBS and incubated overnight at 2-8° C. The assay plates were blocked using LowCross blocking buffer. Biotinylated intact HMWK, biotinylated cleaved HMWK or biotinylated LMWK ([…]) was added to each well in a total volume of 100 μL and incubated for 2 hours prior to washing with a wash buffer. HRP-labeled streptavidin was added to each well at a concentration of 100 ng/mL, and the signal was developed using Ultra TMB Substrate. The signal to noise ratio was calculated using the signal observed upon the addition of the biotinylated protein to an uncoated well. (FIG. 2, panels A and B). Based on the ELISA results, the antibodies can be divided among 5 categories (Table 2).

[2] = biological target: T1, intact high molecular weight kininogen …; assay: Fab passively immobilized on 384-well plate, biotinylated antigen, streptavidin-HRP
Source text: A: plots the ratio of the result of a 2-chain HWMK binding assay to a LMWK binding assay on the y-axis compared to the ratio of the result of a 2-chain HMWK binding assay to a 1-chain HMWK binding assay on the x-axis for each antibody (Fab) tested. Recombinant Fab fragments were passively immobilized onto 384-well plates prior to addition of biotinylated 2-chain HMWK, 1-chain HMWK, or LMWK, followed by streptavidin-HRP.
The depleted library was then contacted with biotinylated 2-chain HMWK immobilized on streptavidin coated magnetic beads. The beads were extensively washed with PBS buffer and used to infect E. coli for phage output amplification to complete a round of selection. Three rounds of selection were performed prior to screening individual phage colonies by ELISA with biotinylated 1-chain and 2-chain HMWK immobilized on streptavidin coated plates followed by detection with horse radish peroxidase (HRP) conjugated anti-M13 antibody and absorbance detection due to substrate hydrolysis for 3,3′,5,5′-Tetramethylbenzidine (TMB). […] The specificity of each purified Fab was determined by coating 384 well plates and measuring binding to biotinylated 1-chain HMWK, to biotinylated 2-chain HMWK, or to biotinylated LMWK, followed by detection with streptavidin conjugated to HRP and TMB detection.

Binder	binding result [1]	binding result [2]
B1	binds	
B2	binds	
B3	binds	
B4	binds	
B5	binds	
B6	binds	
B7		binds
B8	binds	
B9	binds	
B10	binds	
B11	binds	
B12	binds	
B13		binds
